According to patent publication US20260317430 (published 2026):

T1: mouse FGFR2b (mouse, UniProt P21803)
T1 chain: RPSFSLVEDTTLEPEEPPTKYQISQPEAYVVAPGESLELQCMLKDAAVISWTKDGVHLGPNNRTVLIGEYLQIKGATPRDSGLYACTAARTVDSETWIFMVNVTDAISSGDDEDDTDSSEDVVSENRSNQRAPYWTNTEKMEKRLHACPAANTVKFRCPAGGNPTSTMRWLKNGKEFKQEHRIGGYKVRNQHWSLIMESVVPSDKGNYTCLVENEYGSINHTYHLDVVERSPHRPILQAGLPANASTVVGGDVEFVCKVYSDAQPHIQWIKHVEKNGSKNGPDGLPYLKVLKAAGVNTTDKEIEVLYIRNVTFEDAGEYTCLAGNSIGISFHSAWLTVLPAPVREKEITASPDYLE

B1: 2B1 (antibody, V domains shown)
VH: EVQLQQSGAELVKPGASVKMSCKASGYTFASYNLHWVKQTPGQGLEWIGLIYPENGDTSYNQKFKGKATLTADKSSSTAYIQLSSLTSEDSAVYFCARGGFDYWGQGTSLTVSS
VL: DIQMIQSPASLSVSVGETVTITCRASENIYSNLAWYQQKQGKSPQLLVYNAKTLADGVPSRFSGSGSGTQYSLKINSLQPEDFGSYYCQHFWSTPYTFGGGTKLEIK
B2: 1B8 (antibody, V domains shown)
VH: QIQLQQSGAELVKPGASVKMSCKASGYTFASYNLHWVKQTPGQGLEWIGLIYPENGDTSYNQKFKGKATLTADTSSTTAYIQLSSLTSEDSAVYFCARGGFDYWGQGTSLTVSS
VL: DIKMTQSPASLSASVGETVTITCGASENIYGALNWYQRKQGKSPQLLIYGATNLADGMSSRFSGSGSGRQYSLKISSLHPDDVATYYCQNVLSTPYTFGGGTKLEIK
B3: 3A3 (antibody, V domains shown)
VH: QVQLQQSGAELVKPGASVKMSCKASGYTFTTYNIHWVRQTPGQGLEWIGLIYPDNGDTSYNQKFKAKATLTADKSSSTAYMHLSSLTSEDSAVYYCARGGFDYWGQGTTLTVSS
VL: DIVMTQSHKFMSTSVGDRVSITCKASQDVNTDVSWYQQKPGQSPKLLIYSASYRYTGVPTRFTGSGSGTDFTFTISGVQAEDLADYYCQQHYNTPYTFGGGTRLEIK
B4: 3D7 (antibody, V domains shown)
VH: QVQLQQSGAELVKPGASVKMSCKASGYTFSFYNMHWVKRTPGRGLEWIGLIYPDNGDTSYNQKFKGKATLTADTSSSTAYMQLSSLTSEDSAVYYCARGGLDYWGQGTSLTVSS
VL: EIVLTQSPASLAVSLGQRATISCKASQSVDYDGDSYMNWYQQKPGQPPKLLIYGISNRFSGVPDRFSGSGSGTDFTLKISTIKPEDLGMYYCLQGTHQPYTFGGGTKLEIK
B5: 3E7 (antibody, V domains shown)
VH: QVQLQQSGAELVKPGASVKMSCKASGYTFTIYNIHWVRQTPGQGLEWIGLIYPDNGDTSYNQKFKAKATLTADKSSSTAYMQLSSLTSEDSAVYYCARGGFDYWGQGTTLTVSS
VL: NIVMTQSQKFMSTSVGDRVSVTCKASQNVGTNVAWYQQKPGQSPKALIYSASYRYSGVPDRFTGSGSGTDFTLTISGVQAEDLADYYCQQHYNTPYTFGGGTKLEIK
B6: 3F10 (antibody, V domains shown)
VH: EVQLQQSGAELVKPGASVKMSCKASGYTFSFYNIHWVRQTPGQGLEWIGLIYPDNGDTSYNQKFKAKATLTADKSSSTAYMQLSSLTSEDSAVYYCARGGFDYWGQGTTLTVSS
VL: DVLMTQSPASLSASVGETVTITCGASENIYGALNWYQRKQGKSPQLLIYGATNLADGMSSRFSGSGSGRQYSLKISSLHPDDVATYYCQNVLSTPYTFGGGTKLEIK
B7: 1D7 (antibody, V domains shown)
VH: QIQLQQSGAELVKPGASVKMSCKASGYTFRYYNMHWVKRTPGQGLEWIGLIYPDNGDTSYNQKFKGKATLTADTSSSTAYMQLSSLTSEDSAVYYCARGGLDYWGQGTSLTVSS
VL: DIQMTQSPSSMSASLGDRITITCQATQDIVKNLNWYQQKPGKPPSFLIYYATELAEGVPSRFSGSGSGSDYSLTISNLESEDFADYYCLQFYEFPLTFGAGTKLELK
B8: 3D6 (antibody, V domains shown)
VH: QVQLQQSGAELVKPGASVKMSCKASGYTFRYYNMHWVKRTPGQGLEWIGLIYPDNGDTSYNQKFKGKATLTADTSSSTAYMQLSSLTSEDSAVYYCARGGLDYWGQGTSLTVSS
VL: DIQMTQSPASLSVSVGETVTITCRASENIYSNLAWYQQKQGKSPQLLVYNAKTLADGVPSRFSGSGSGTQYSLKINSLQPEDFGSYYCQHFWSTPFTFGSGTKLELK
B9: 3A12 (antibody, V domains shown)
VH: EVQLQQSGAELVKPGASVKMSCKASGYTFSFYNVHWVRQTPGQGLEWIGLIYPDNGDTSYNQKFKAKATLTADKSSSAAYMQLSSLTSEDSAVYYCARGGFDYWGQGTSLTVSS
VL: DIVMTQSHKFMSTSVGDRVNITCKASQDVSTAVAWYQQKPGQSPKLLIYSASYRYSGVPDRFTGSGSGTDFTFTISSVQAEDLAVYYCQQHYSTPYTFGGGTKLEMK
B10: 3H6 (antibody, V domains shown)
VH: QVQLQQSGAELVKPGASVKMSCKASGYTFSFYNIHWVRQTPGQGLEWIGLIYPDNGDTSYNQKFKAKATLTADKSSSTAYMQLSSLTSEDSAVYYCARGGFDYWGQGTTLTVSS
VL: DIQMTQSPASLSASVGETVTITCRASENIYSYLAWYQQKQGKSPQLLVYNAKTLAEGVPSRFSGSGSGTQFSLKINSLQPEDFGSYYCQHHYGTPYTFGGGTKLEMK
B11: 3B4 (antibody, V domains shown)
VH: EVQLQQSGADLVKPGASVKMSCKASGYTFSYYNMHWVRRTPGQGLEWIGLIYPDNGDTSYNQKFKGKATLTADTSSSTAYMQLSSLTSEDSAVYYCARGGLDYWGQGTTLTVSS
VL: DIQMIQSPASMSASVGETVTITCGASENIYGALNWYQRKQGKSPQLLIYGATNLADGMSSRFSGSGSGRQYSLKISSLHPDDVATYYCQNVLSTPYTFGGGTKLEMK
B12: 3A8 (antibody, V domains shown)
VH: QVQLQQSGAELVKPGASVKMSCKASGYTFTIYNIHWVRQTPGQGLEWIGLIYPDNGDTSYNQKFKAKATLTADKSSSTAYMQLSSLTSEDSAVYYCARGGFDYWGQGTSLTVSS
VL: DIVMTQSQKFMSTSVGDRVSVTCKASQNVGTNVAWYQQKPGQSPKALIYSASYRYSGVPDRFTGSGSGTDFTLTISNVQAEDLADYFCQQHYSTPYTFGGGTKLEMK
B13: 3F11 (antibody, V domains shown)
VH: QVQLQQSGAELVKPGASVKMSCKASGYTFAPYNIHWVRQTPGQGLEWIGLIYPDNGDTSYNQKFKAKATLTADKSSSTAYMQLSSLTSEDSAVYYCARGGFDYWGQGTSLTVSS
VL: DIVMTQSQKFMSTSVGDRVSVTCKASQNVGTNVAWYQQKPGQSPKALIYSASYRYSGVPDRFTGSGSGTDFTLTISNVQSEDLAEYFCQQHYSTPFTFGSGTKLEIK
B14: 3F5 (antibody, V domains shown)
VH: EIQLQQSGAELVKPGASVKMSCKASGYTFRYYNMHWVKRTPGQGLEWIGLIYPDNGDTSYNQKFKGKATLTADTSSSTAYMQLSSLTSEDSAVYYCARGGLDYWGQGTTLTVSS
VL: DIVLTQSPASLSASVGETVTITCGASENIYGALNWYQRKQGKSPQLLIYGATNLADGMSSRFSGSGSGRQYSLKISSLHPDDVATYYCQNVLSTPYTFGGGTKLEIK

How the values were obtained:
mouse FGFR2b = biological target: T1, mouse FGFR2b; experiment: BLI
[1] = biological target: T2, human FGFR2b extracellular domain (human, UniProt P21802); experiment: BLI
[2] = biological target: human FGFR2b on KATO III cells (human, UniProt P21802); experiment: FACS
[3] = biological target: T2, human FGFR2b extracellular domain; experiment: ELISA

Sequence of human FGFR2b on KATO III cells (P21802 22-377): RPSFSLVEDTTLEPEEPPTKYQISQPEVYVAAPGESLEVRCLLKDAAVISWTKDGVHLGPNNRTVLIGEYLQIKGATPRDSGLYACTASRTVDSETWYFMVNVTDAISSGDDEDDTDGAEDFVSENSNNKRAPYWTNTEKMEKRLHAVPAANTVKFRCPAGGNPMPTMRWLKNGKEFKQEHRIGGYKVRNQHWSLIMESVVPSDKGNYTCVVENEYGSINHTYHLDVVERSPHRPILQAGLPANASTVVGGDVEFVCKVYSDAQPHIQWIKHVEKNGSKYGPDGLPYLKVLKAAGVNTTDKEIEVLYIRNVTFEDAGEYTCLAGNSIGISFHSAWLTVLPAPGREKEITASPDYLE
T2 sequence (P21802 22-377): as above

Row | Binder | Kd (mouse FGFR2b) [nM] | Kd [1] [nM] | EC50 [2] [µg/mL] | EC50 [3] [µg/mL]
1 | B1 | 23 | 6.67 | 0.195 | 0.0276
2 | B2 | 74.9 | 13.3 | 0.133 | 0.0273
3 | B3 | 39.6 | 3.71 | 0.236 | 0.0216
4 | B4 | 81.7 | 8.58 | 0.259 | 0.0369
5 | B5 | 40.9 | 4.35 | 0.298 | 0.0154
6 | B6 | 52.5 | 7.62 | 0.159 | 0.00818
7 | B7 | 27.6 | 4.51 | 0.167 | 0.0154
8 | B8 | 21.7 | 15 | 0.136 | 0.0369
9 | B9 | 10.7 | 2.82 | 0.292 | 0.0128
10 | B10 | 43.7 | 8.41 | 0.226 | 0.0128
11 | B11 | 27.3 | 6.28 | 0.168 | 0.0166
12 | B12 | 7.17 | 3.48 | 0.199 | 0.0278
13 | B13 | 26 | 6.13 | 0.164 | 0.0156
14 | B14 | 36.1 | 5.1 | 0.105 | 0.0159
